Molecular target: SidN (Lpg1083), recombinant with 6-His tag (Legionella pneumophila) (UniProt Q5ZWK2)
Test: SEC

“SidN (Lpg1083), recombinant with 6-His tag (from UniProt Q5ZWK2 1-227) (natural protein)” was tested, and the stoichiometry N was 2.

From paper PMC10729856
